Test system: Foxi1 (FOXI1)
Assay: competition EMSA
Conditions: unlabeled wt competitor; 5 mM HEPES pH 7.9, 100 mM KCl, 26% glycerol, 1.5 mM MgCl2, 0.2 mM EDTA, 0.5 mM DTT, 0.5 mM PMSF, 500 ng poly dI:dC, room temperature 15 min; 6% native gel …; scale: fold molar excess for effective competition

## ATP6V0A4 Fk1-3 wt (-561/-547)
  competitor fold molar excess for effective competition: 10

Source: publication PMC2637605
